This note sets out measurements from patent US20190071517A1 (KANAGAWA PREFECTURAL HOSPITAL ORGANIZATION, published 2019).

Assay [1] has as its target T1, HEG1 1kb (human, UniProt Q9ULI3 986-1381).
T1 construct: Inserted into pFLAG-CMV1, expressed in ACC-MESO-1; also called fragment 1kb
T1 sequence: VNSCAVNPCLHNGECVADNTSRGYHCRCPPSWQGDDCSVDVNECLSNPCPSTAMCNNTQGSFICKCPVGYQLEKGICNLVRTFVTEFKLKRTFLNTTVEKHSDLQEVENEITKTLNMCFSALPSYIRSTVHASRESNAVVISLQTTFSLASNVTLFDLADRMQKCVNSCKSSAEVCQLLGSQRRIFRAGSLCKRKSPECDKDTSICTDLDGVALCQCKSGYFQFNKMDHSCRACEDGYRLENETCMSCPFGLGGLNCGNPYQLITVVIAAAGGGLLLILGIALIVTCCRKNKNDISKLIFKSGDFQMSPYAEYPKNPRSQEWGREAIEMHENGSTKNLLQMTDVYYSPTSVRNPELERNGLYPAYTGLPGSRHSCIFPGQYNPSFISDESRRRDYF
The experiment in a line: Western blot of cell lysate. As to the method:
Gene transfer was performed with HEG1 siRNA (H9106) (SEQ ID NOs: 40, 41) and human HEG1 for the mesothelioma cell line ACC-MESO-1, and the reactivity of the SKM9-2 was examined through Western blot analysis. A full length protein (HEG1 full length) or a fragment (HEG1 3kb, HEG1 2kb, or HEG1 1kb) of the human HEG1 was used. The full length human HEG1 protein, a protein having the amino acid sequence set forth in SEQ ID NO: 35, was obtained through inserting a base sequence set forth in SEQ ID NO: 34 into pFLAG-CMV1 (Sigma-Aldrich Japan K.K.) to obtain a plasmid, transforming the plasmid, and allowing the mesothelioma cell line to express the plasmid. Fragment HEG1 3kb was obtained through inserting a fragment corresponding to a sequence from position 285, leucine, to position 1387, phenylalanine, of SEQ ID NO: 35 into pFLAG-CMV1 (Sigma-Aldrich Japan K.K.) in an in-frame manner, and allowing the mesothelioma cell line to express the resultant. […] Each cell lysate was analyzed through Western blot with the SKM9-2 antibody.
A general note: Immunoblotting shows a protein as a band on a membrane.

For assay [2], the target named is T2, HEG1 full length (full length human HEG1 protein expressed in ACC-MESO-1) (human, UniProt Q9ULI3 30-1381, limits assumed).
T2 construct: Full length; expressed from pFLAG-CMV1 in ACC-MESO-1 with the endogenous HEG1 knocked down; cell lysate in Western blot; What the vector adds is not described; also called full length protein
T2 sequence: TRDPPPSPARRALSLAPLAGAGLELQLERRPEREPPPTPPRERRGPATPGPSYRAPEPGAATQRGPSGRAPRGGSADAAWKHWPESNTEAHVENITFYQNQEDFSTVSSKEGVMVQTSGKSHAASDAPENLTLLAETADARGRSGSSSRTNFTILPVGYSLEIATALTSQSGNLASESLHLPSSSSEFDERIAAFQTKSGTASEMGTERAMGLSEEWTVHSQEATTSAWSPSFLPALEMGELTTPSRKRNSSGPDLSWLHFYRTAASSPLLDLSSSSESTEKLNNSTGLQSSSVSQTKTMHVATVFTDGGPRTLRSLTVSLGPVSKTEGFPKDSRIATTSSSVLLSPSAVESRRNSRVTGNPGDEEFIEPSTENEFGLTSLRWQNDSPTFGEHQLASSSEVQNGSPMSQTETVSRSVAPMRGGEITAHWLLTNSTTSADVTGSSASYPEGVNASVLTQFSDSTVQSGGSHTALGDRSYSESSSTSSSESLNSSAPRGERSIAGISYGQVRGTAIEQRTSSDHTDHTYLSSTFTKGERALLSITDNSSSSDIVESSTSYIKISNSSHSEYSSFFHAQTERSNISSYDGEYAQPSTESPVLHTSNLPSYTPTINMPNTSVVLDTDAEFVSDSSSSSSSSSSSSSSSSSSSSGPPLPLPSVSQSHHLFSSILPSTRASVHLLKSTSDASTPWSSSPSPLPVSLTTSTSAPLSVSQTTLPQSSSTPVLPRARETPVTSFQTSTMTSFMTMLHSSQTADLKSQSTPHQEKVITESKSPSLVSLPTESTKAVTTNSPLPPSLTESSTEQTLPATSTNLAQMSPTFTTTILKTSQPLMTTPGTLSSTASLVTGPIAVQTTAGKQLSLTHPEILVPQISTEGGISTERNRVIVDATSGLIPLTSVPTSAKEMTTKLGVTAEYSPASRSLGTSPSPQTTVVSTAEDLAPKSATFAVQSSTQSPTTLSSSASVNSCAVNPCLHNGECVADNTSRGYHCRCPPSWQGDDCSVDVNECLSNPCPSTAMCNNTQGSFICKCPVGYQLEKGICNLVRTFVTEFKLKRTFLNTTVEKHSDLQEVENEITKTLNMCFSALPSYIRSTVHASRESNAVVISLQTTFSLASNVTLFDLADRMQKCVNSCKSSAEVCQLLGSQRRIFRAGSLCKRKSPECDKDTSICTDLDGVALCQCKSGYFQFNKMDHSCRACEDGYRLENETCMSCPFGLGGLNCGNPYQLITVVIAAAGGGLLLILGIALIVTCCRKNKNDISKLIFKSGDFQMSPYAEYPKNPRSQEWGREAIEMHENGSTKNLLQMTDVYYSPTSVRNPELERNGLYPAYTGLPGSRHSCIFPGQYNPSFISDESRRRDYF
The experiment in a line: Western blot of ACC-MESO-1 cell lysate. The procedure:
(§1) Gene transfer was performed with HEG1 siRNA (H9106) (SEQ ID NOs: 40, 41) and human HEG1 for the mesothelioma cell line ACC-MESO-1, and the reactivity of the SKM9-2 was examined through Western blot analysis. A full length protein (HEG1 full length) or a fragment (HEG1 3kb, HEG1 2kb, or HEG1 1kb) of the human HEG1 was used. The full length human HEG1 protein, a protein having the amino acid sequence set forth in SEQ ID NO: 35, was obtained through inserting a base sequence set forth in SEQ ID NO: 34 into pFLAG-CMV1 (Sigma-Aldrich Japan K.K.) to obtain a plasmid, transforming the plasmid, and allowing the mesothelioma cell line to express the plasmid. Fragment HEG1 3kb was obtained through inserting a fragment corresponding to a sequence from position 285, leucine, to position 1387, phenylalanine, of SEQ ID NO: 35 into pFLAG-CMV1 (Sigma-Aldrich Japan K.K.) in an in-frame manner, and allowing the mesothelioma cell line to express the resultant. HEG1 2kb and HEG1 1kb were obtained through allowing the mesothelioma cell line to express products similarly obtained from a fragment corresponding to a sequence from position 677, leucine, to position 1387, phenylalanine, of SEQ ID NO: 35 and a fragment corresponding to a sequence from position 992, valine, to position 1387, phenylalanine, of SEQ ID NO: 35, respectively. Each cell lysate was analyzed through Western blot with the SKM9-2 antibody.

Assay [3] concerns the target T3, HEG1 3kb (human, UniProt Q9ULI3 285-1381).
T3 construct: Inserted in frame into pFLAG-CMV1, expressed in ACC-MESO-1; what the vector adds is not described; also called fragment 3kb
T3 sequence: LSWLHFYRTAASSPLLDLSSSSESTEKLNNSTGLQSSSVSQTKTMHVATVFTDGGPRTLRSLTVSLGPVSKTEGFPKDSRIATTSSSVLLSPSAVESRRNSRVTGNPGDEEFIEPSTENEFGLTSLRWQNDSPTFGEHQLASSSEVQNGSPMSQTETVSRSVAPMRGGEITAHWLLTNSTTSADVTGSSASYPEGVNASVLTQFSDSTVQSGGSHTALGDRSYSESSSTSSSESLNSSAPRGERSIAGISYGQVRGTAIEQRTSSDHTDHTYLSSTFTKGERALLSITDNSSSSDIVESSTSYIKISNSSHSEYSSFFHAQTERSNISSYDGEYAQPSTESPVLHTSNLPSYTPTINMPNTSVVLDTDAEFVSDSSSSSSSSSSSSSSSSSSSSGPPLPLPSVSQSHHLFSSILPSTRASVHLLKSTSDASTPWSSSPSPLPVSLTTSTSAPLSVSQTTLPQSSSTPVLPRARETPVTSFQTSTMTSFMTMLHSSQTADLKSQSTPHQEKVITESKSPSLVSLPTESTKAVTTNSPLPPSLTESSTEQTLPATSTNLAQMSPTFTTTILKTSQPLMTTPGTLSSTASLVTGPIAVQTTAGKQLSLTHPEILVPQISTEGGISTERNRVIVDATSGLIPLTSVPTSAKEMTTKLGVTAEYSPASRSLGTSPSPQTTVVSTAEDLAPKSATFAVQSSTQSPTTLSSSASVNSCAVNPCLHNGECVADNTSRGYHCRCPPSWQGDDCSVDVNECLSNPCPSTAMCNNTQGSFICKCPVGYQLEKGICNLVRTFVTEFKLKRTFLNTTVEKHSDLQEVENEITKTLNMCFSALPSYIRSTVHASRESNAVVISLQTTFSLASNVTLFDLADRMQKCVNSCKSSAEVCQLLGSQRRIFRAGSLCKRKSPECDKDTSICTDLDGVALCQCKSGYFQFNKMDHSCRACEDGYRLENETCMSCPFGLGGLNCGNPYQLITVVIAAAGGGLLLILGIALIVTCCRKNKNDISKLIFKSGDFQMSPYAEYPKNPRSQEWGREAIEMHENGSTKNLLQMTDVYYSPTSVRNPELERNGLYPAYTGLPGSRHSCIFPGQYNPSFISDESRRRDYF
The experiment in a line: Western blot of ACC-MESO-1 cell lysate. As to the method:
as §1

Assay [4] addresses T4, HEG1 2kb (human, UniProt Q9ULI3 671-1381).
T4 construct: Inserted into pFLAG-CMV1, expressed in ACC-MESO-1; also called fragment 2kb
T4 sequence: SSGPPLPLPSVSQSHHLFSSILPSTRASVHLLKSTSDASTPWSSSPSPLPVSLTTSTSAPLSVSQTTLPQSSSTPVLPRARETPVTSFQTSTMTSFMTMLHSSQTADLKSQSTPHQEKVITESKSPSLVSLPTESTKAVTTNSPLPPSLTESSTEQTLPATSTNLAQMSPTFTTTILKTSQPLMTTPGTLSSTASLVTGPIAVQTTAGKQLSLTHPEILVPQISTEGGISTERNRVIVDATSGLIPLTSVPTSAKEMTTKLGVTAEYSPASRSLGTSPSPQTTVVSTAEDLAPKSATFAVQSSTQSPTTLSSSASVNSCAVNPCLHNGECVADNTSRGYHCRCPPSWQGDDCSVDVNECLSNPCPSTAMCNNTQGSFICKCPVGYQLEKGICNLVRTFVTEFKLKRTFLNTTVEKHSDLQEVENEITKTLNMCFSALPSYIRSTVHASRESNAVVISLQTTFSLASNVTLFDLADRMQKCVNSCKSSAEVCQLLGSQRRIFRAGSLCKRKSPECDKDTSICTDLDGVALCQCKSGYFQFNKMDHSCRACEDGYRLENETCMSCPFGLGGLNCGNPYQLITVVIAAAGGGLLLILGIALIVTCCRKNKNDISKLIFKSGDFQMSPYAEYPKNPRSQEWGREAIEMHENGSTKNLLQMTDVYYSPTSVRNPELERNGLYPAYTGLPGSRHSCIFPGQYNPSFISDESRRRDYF
The experiment in a line: Western blot of ACC-MESO-1 cell lysate. As to the method: as §1

B1: SKM9-2 antibody (antibody, mouse IgG1, kappa, V domains shown)
VH: QVQLQQPGAELVRPGASVKLSCKASGFSFTTYWITWVKQRPGQGLEWIGMIHPSDSETRLSQTFKDKATLTVDKSSNTAYMQFSSPTSEDSAVYYCVRDFDVWGAGTTVTVSS
VL: DVLMTQTPLSLPVSLGDQASISCRSSQNIVHNNGNTYLGWYLQKPGQSPKLLIFKVSNRFSGVPDRFSGSGSGTDFTLKISRVEAEDLGVYYCFQGSHIPRTFGGGTRLEIKR
notes: also called monoclonal antibody produced from the SKM9-2 hybridoma
As for B1, the binding result in assay [1] was “no binding”; in assay [2], “binds”; in assay [3] it was “binds”; in assay [4] it was “binds”.
